The results in this text go back to publication PMC10794523.

This data set addresses T1, Sif (Lmo0946-His6) (Listeria monocytogenes EGD-e) (UniProt Q8Y8F8).
T1 sequence: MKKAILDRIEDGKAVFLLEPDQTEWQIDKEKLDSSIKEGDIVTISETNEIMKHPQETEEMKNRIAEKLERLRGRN
Kind of data set: EMSA. As to conditions: EMSA 37 C 30 min, 4.2% native PAGE, ethidium bromide stain; binding buffer not stated (protein dialyzed in 20 mM Tris-HCl pH 8.0, 150 mM NaCl, 1% glycerol). Background: In EMSA bound probe runs differently from free probe, usually more slowly.

As to “GCGGTATGTTTCCACTGTCGCTGTAATACCTGATTGTTCTTTAGAAAGGTCGCGTAGTCGCTTTGGATCAGATACTACATCTGGATCACTTAGTAGTTCATTTAGTTCATCATAACGGTCTTCCACCGCCTGTAATCGATCATACATTGTATTCCAACACCTCTTTAACTTATTTTATTGGTGGATTGGCATGACATTTGCGACACACAGGGTAATAGTGGTCATTTCCGCCAATCATAATTTGTTCACCTGTATAAACTGGTTTTCCTTTGTCATCAACGCGCAG (double strand) [prfA promoter region]”, the binding entry is recorded as “no binding”. With “AGCGAATTAGCTCAAGTCCTCCATACCCCGTCGCGCCAATGATTGAAACTTTCATCCTAACCCCTCCCCGTTAATTATTAAATGATACTTTTCATTATAATGATGTATATTTATAATGTCAAATGGTTTTTTATTAATATTTAAAACTATTTTATGCATTTTAAGTTATTTATTATGTATATAATATACAAAAAACCGTTTATCCTTTTCTAGGATAAACGGTTAATCTTAAAATAAATCAGCGAACTCATCTTTCACTTGCGCAGTTTCCGCTAC (double strand) [argC promoter region]”, the binding entry is “no binding”.
